Biological target: T1, recombinant CaM6 (untagged) (UniProt Q03509 1-149)
T1 construct: calmodulin 6 (CaM6), 'a conserved CaM isoform'; recombinant, untagged; also called Ca2+/CaM; source: E. coli NiCO (DE3), purified (heat step, phenyl-Sepharose)
Test: native gel or EMSA; CaM (240 pmol) with different amounts of LL22 or pLL22 peptide in the ratios indicated, 20 μl, 60 min, then native PAGE
Conditions: both partners purified

B1: LL22 peptide (CPK28 autoinhibitory junction) (peptide)
peptide: LRQFVRYSRLKQFALRALASTL
notes: source: synthetic peptide (LifeTein)
stoichiometry N: 1

Source: paper PMC5354511, “Autophosphorylation-based Calcium (Ca^2+) Sensitivity Priming and Ca^2+/Calmodulin Inhibition of Arabidopsis thaliana Ca^2+-dependent Protein Kinase 28 (CPK28)*^([image sbox.jpg])^♦” (The Journal of Biological Chemistry, 2017)
